{"source": "paper PMC7394266", "key": {"[1]": {"biological_target": "PD-L1 IgV-TIM-3 chimera with K124S in the PD-L1 IgV domain, on transfected COS cells (human) (UniProt Q9NZQ7)", "assay": "flow cytometry on cells"}, "[2]": {"biological_target": "PD-L1 IgV-TIM-3 chimera with M115A in the PD-L1 IgV domain, on transfected COS cells (human) (UniProt Q9NZQ7)", "assay": "flow cytometry on cells"}}}
{"substance": "human B7–1-hIgG1 recombinant fusion protein (from UniProt P33681 35-242) (Fc fusion)", "values": [{"measurement": "percent decrease in binding against the unmutated chimera", "setting": "[1]", "value": 80, "unit": "%"}, {"measurement": "percent decrease in binding against the unmutated chimera", "setting": "[2]", "value": 80, "unit": "%"}]}
